T1: Pol3p, catalytic subunit of DNA polymerase δ (overexpressed for Pol δ purification) (S. cerevisiae, UniProt P15436 1-1097)
T1 construct: Pol3p, catalytic subunit of DNA polymerase δ, Saccharomyces cerevisiae; also called catalytic subunit of Pol δ; source: purified on glutathione Sepharose 4B, PreScission Protease, MonoS FPLC
T1 sequence (looked up): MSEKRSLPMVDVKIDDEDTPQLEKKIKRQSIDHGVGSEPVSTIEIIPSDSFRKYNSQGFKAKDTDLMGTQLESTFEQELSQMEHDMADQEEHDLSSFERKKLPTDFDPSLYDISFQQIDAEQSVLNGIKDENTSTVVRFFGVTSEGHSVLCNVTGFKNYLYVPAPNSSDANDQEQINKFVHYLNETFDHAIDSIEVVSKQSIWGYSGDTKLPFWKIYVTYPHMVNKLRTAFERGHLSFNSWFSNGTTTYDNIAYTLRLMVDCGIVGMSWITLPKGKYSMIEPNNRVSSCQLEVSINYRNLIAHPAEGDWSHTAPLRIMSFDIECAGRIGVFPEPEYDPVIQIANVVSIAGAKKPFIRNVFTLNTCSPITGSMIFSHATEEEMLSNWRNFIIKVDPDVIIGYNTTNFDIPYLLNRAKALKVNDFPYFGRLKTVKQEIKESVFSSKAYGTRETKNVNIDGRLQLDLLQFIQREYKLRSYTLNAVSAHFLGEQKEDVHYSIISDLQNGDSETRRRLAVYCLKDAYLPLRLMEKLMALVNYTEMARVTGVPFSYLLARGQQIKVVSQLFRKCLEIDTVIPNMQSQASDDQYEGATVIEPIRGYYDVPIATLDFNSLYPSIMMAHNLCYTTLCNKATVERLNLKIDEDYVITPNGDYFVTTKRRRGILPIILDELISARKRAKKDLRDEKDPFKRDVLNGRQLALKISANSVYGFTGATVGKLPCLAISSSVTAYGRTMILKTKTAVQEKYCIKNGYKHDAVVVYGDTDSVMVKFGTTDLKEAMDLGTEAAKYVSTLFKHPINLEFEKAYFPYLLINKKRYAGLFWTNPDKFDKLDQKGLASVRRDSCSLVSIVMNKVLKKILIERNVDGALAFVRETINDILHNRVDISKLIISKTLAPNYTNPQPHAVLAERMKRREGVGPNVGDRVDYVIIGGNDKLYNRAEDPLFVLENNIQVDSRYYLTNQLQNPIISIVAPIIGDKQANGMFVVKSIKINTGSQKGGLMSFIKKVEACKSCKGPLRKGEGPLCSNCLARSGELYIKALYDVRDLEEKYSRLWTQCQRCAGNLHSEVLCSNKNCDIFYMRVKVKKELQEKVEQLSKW

T2: Pol3 fused to a LexA DNA-binding domain (LexABD-POL3, pBL322) (S. cerevisiae, UniProt P15436 1-1097)
T2 construct: Pol3p, catalytic subunit of DNA polymerase δ, Saccharomyces cerevisiae; also called Pol3^BD; source: yeast two-hybrid fusion (2μ vector pBTM116, strain L40 or its met18Δ derivative DKy440)
T2 sequence (looked up): T1 sequence (looked up)

B1: Pol32p, accessory subunit of DNA polymerase δ (overexpressed for Pol δ purification) (natural protein, S. cerevisiae, UniProt P47110 1-350, looked up)
chain: MDQKASYFINEKLFTEVKPVLFTDLIHHLKIGPSMAKKLMFDYYKQTTNAKYNCVVICCYKDQTIKIIHDLSNIPQQDSIIDCFIYAFNPMDSFIPYYDIIDQKDCLTIKNSYELKVSESSKIIERTKTLEEKSKPLVRPTARSKTTPEETTGRKSKSKDMGLRSTALLAKMKKDRDDKETSRQNELRKRKEENLQKINKQNPEREAQMKELNNLFVEDDLDTEEVNGGSKPNSPKETDSNDKDKNNDDLEDLLETTAEDSLMDVPKIQQTKPSETEHSKEPKSEEEPSSFIDEDGYIVTKRPATSTPPRKPSPVVKRALSSSKKQETPSSNKRLKKQGTLESFFKRKAK
notes: Pol32p, accessory subunit of DNA polymerase δ, Saccharomyces cerevisiae
B2: Pol31p, accessory subunit of DNA polymerase δ (overexpressed for Pol δ purification) (natural protein, S. cerevisiae, UniProt P46957 1-487, looked up)
chain: MDALLTKFNEDRSLQDENLSQPRTRVRIVDDNLYNKSNPFQLCYKKRDYGSQYYHIYQYRLKTFRERVLKECDKRWDAGFTLNGQLVLKKDKVLDIQGNQPCWCVGSIYCEMKYKPNVLDEVINDTYGAPDLTKSYTDKEGGSDEIMLEDESGRVLLVGDFIRSTPFITGVVVGILGMEAEAGTFQVLDICYPTPLPQNPFPAPIATCPTRGKIALVSGLNLNNTSPDRLLRLEILREFLMGRINNKIDDISLIGRLLICGNSVDFDIKSVNKDELMISLTEFSKFLHNILPSISVDIMPGTNDPSDKSLPQQPFHKSLFDKSLESYFNGSNKEILNLVTNPYEFSYNGVDVLAVSGKNINDICKYVIPSNDNGESENKVEEGESNDFKDDIEHRLDLMECTMKWQNIAPTAPDTLWCYPYTDKDPFVLDKWPHVYIVANQPYFGTRVVEIGGKNIKIISVPEFSSTGMIILLDLETLEAETVKIDI
notes: Pol31p, accessory subunit of DNA polymerase δ, Saccharomyces cerevisiae
B3: Pol31 fused to a GAL4-activation domain (GAL4AD-POL31, pBL364) (natural protein, S. cerevisiae, UniProt P46957 1-487, looked up)
chain: B2 chain
notes: Pol31p, accessory subunit of DNA polymerase δ, Saccharomyces cerevisiae; also called Pol31^AD; source: yeast two-hybrid fusion (2μ vector pACT2, strain L40 or its met18Δ derivative DKy440)

What was measured:
[1] = biological target: T1, Pol3p, catalytic subunit of DNA …; experiment: co-purification (glutathione Sepharose, MonoS FPLC), composition by gel electrophoresis; Pol3p, Pol31p and Pol32p overexpressed together in the MET18 strain BJ2168; batch bound to glutathione Sepharose 4B at 4°C, washed with Hep250, Hep150, Hep50, eluted with 20 mM glutathione, PreScission Protease, MonoS gradient 50-1000 mM NaCl; settings: partners not purified
[2] = biological target: T2, Pol3 fused to a LexA DNA-binding domain …; experiment: two-hybrid; LexA DNA-binding domain and GAL4 activation domain fusions, (lexAop)8-lacZ reporter, quantitative β-galactosidase assays in triplicate; wild-type strain L40 and its met18Δ derivative DKy440; settings: partners not purified

Binder	stoichiometry N [1]	fold reduction of β-galactosidase in the met18 strain relative to the wild-type strain [2]
B1	1.1 molar ratio relative to Pol3p	
B2	0.8 molar ratio relative to Pol3p	
B3		~2 fold

From paper PMC8191807, “The fidelity of DNA replication, particularly on GC-rich templates, is reduced by defects of the Fe–S cluster in DNA polymerase δ” (Nucleic Acids Research, 2021)
